Data as given in patent US12679878B2, “CRF2 receptor agonists and their use in therapy” (SANOFI, priority 2020, dated 2026).
Starred links: 1 amine or outer side, 2 acyl side, 3 side chain; linkers in the order of their positions; H or OH if unused. Non-standard residues stand in square brackets, D forms with d. Groups on a side chain read outwards from the residue. No end group written: not given here. *: point of attachment. C16 diacid = O=C(O)CCCCCCCCCCCCCCC(=O)*; γGlu = O=C(O)[C@H](CCC(=O)[*:2])N[*:1]; Aib = CC(C)(N)C(=O)O

T1: CRF1R receptor (anti-target) (UniProt P34998 24-415, limits assumed)
T1 sequence (looked up): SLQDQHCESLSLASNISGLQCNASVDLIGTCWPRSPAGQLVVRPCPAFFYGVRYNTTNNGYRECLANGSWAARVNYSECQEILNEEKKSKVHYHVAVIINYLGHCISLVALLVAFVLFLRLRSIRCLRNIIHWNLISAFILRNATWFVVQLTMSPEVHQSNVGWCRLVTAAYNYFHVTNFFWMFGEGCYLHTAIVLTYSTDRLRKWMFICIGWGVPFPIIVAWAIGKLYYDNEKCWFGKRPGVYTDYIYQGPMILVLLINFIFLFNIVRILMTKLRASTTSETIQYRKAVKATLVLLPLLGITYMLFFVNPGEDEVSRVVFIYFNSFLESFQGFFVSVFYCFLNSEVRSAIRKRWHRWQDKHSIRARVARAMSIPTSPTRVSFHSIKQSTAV

B1: peptide of SEQ ID NO: 188 (peptide)
peptide: IVLSLD[dV]PIKLK([γGlu-C16 diacid])QILLKQERQK[Aib]QRQQAEKNKQILAQV-NH2
modifications: N-terminus assumed
SMILES: CC[C@H](C)[C@H](N)C(=O)N[C@H](C(=O)N[C@@H](CC(C)C)C(=O)N[C@@H](CO)C(=O)N[C@@H](CC(C)C)C(=O)N[C@@H](CC(=O)O)C(=O)N[C@@H](C(=O)N1CCC[C@H]1C(=O)N[C@H](C(=O)N[C@@H](CCCCN)C(=O)N[C@@H](CC(C)C)C(=O)N[C@@H](CCCCNC(=O)CC[C@H](NC(=O)CCCCCCCCCCCCCCC(=O)O)C(=O)O)C(=O)N[C@@H](CCC(N)=O)C(=O)N[C@H](C(=O)N[C@@H](CC(C)C)C(=O)N[C@@H](CC(C)C)C(=O)N[C@@H](CCCCN)C(=O)N[C@@H](CCC(N)=O)C(=O)N[C@@H](CCC(=O)O)C(=O)N[C@@H](CCCNC(=N)N)C(=O)N[C@@H](CCC(N)=O)C(=O)N[C@@H](CCCCN)C(=O)NC(C)(C)C(=O)N[C@@H](CCC(N)=O)C(=O)N[C@@H](CCCNC(=N)N)C(=O)N[C@@H](CCC(N)=O)C(=O)N[C@@H](CCC(N)=O)C(=O)N[C@@H](C)C(=O)N[C@@H](CCC(=O)O)C(=O)N[C@@H](CCCCN)C(=O)N[C@@H](CC(N)=O)C(=O)N[C@@H](CCCCN)C(=O)N[C@@H](CCC(N)=O)C(=O)N[C@H](C(=O)N[C@@H](CC(C)C)C(=O)N[C@@H](C)C(=O)N[C@@H](CCC(N)=O)C(=O)N[C@H](C(N)=O)C(C)C)[C@@H](C)CC)[C@@H](C)CC)[C@@H](C)CC)C(C)C)C(C)C
B2: peptide of SEQ ID NO: 197 (peptide)
peptide: IVLSLD[dV]PIKLK([γGlu-C16 diacid])QILLKQARQK[Aib]QRAQAEKNKRILERV-NH2
modifications: N-terminus assumed
SMILES: CC[C@H](C)[C@H](N)C(=O)N[C@H](C(=O)N[C@@H](CC(C)C)C(=O)N[C@@H](CO)C(=O)N[C@@H](CC(C)C)C(=O)N[C@@H](CC(=O)O)C(=O)N[C@@H](C(=O)N1CCC[C@H]1C(=O)N[C@H](C(=O)N[C@@H](CCCCN)C(=O)N[C@@H](CC(C)C)C(=O)N[C@@H](CCCCNC(=O)CC[C@H](NC(=O)CCCCCCCCCCCCCCC(=O)O)C(=O)O)C(=O)N[C@@H](CCC(N)=O)C(=O)N[C@H](C(=O)N[C@@H](CC(C)C)C(=O)N[C@@H](CC(C)C)C(=O)N[C@@H](CCCCN)C(=O)N[C@@H](CCC(N)=O)C(=O)N[C@@H](C)C(=O)N[C@@H](CCCNC(=N)N)C(=O)N[C@@H](CCC(N)=O)C(=O)N[C@@H](CCCCN)C(=O)NC(C)(C)C(=O)N[C@@H](CCC(N)=O)C(=O)N[C@@H](CCCNC(=N)N)C(=O)N[C@@H](C)C(=O)N[C@@H](CCC(N)=O)C(=O)N[C@@H](C)C(=O)N[C@@H](CCC(=O)O)C(=O)N[C@@H](CCCCN)C(=O)N[C@@H](CC(N)=O)C(=O)N[C@@H](CCCCN)C(=O)N[C@@H](CCCNC(=N)N)C(=O)N[C@H](C(=O)N[C@@H](CC(C)C)C(=O)N[C@@H](CCC(=O)O)C(=O)N[C@@H](CCCNC(=N)N)C(=O)N[C@H](C(N)=O)C(C)C)[C@@H](C)CC)[C@@H](C)CC)[C@@H](C)CC)C(C)C)C(C)C
B3: peptide of SEQ ID NO: 195 (peptide)
peptide: IVLSLD[dV]PIGLK([γGlu-C16 diacid])QILLKQERQKK[Aib]RQQAETNKRILERV-NH2
modifications: N-terminus assumed
SMILES: CC[C@H](C)[C@H](N)C(=O)N[C@H](C(=O)N[C@@H](CC(C)C)C(=O)N[C@@H](CO)C(=O)N[C@@H](CC(C)C)C(=O)N[C@@H](CC(=O)O)C(=O)N[C@@H](C(=O)N1CCC[C@H]1C(=O)N[C@H](C(=O)NCC(=O)N[C@@H](CC(C)C)C(=O)N[C@@H](CCCCNC(=O)CC[C@H](NC(=O)CCCCCCCCCCCCCCC(=O)O)C(=O)O)C(=O)N[C@@H](CCC(N)=O)C(=O)N[C@H](C(=O)N[C@@H](CC(C)C)C(=O)N[C@@H](CC(C)C)C(=O)N[C@@H](CCCCN)C(=O)N[C@@H](CCC(N)=O)C(=O)N[C@@H](CCC(=O)O)C(=O)N[C@@H](CCCNC(=N)N)C(=O)N[C@@H](CCC(N)=O)C(=O)N[C@@H](CCCCN)C(=O)N[C@@H](CCCCN)C(=O)NC(C)(C)C(=O)N[C@@H](CCCNC(=N)N)C(=O)N[C@@H](CCC(N)=O)C(=O)N[C@@H](CCC(N)=O)C(=O)N[C@@H](C)C(=O)N[C@@H](CCC(=O)O)C(=O)N[C@H](C(=O)N[C@@H](CC(N)=O)C(=O)N[C@@H](CCCCN)C(=O)N[C@@H](CCCNC(=N)N)C(=O)N[C@H](C(=O)N[C@@H](CC(C)C)C(=O)N[C@@H](CCC(=O)O)C(=O)N[C@@H](CCCNC(=N)N)C(=O)N[C@H](C(N)=O)C(C)C)[C@@H](C)CC)[C@@H](C)O)[C@@H](C)CC)[C@@H](C)CC)C(C)C)C(C)C
B4: peptide of SEQ ID NO: 190 (peptide)
peptide: IVLSLD[dV]PIKLK([γGlu-C16 diacid])QILLKQERQKKQREQAEKNKQILEQV-NH2
modifications: N-terminus assumed
SMILES: CC[C@H](C)[C@H](N)C(=O)N[C@H](C(=O)N[C@@H](CC(C)C)C(=O)N[C@@H](CO)C(=O)N[C@@H](CC(C)C)C(=O)N[C@@H](CC(=O)O)C(=O)N[C@@H](C(=O)N1CCC[C@H]1C(=O)N[C@H](C(=O)N[C@@H](CCCCN)C(=O)N[C@@H](CC(C)C)C(=O)N[C@@H](CCCCNC(=O)CC[C@H](NC(=O)CCCCCCCCCCCCCCC(=O)O)C(=O)O)C(=O)N[C@@H](CCC(N)=O)C(=O)N[C@H](C(=O)N[C@@H](CC(C)C)C(=O)N[C@@H](CC(C)C)C(=O)N[C@@H](CCCCN)C(=O)N[C@@H](CCC(N)=O)C(=O)N[C@@H](CCC(=O)O)C(=O)N[C@@H](CCCNC(=N)N)C(=O)N[C@@H](CCC(N)=O)C(=O)N[C@@H](CCCCN)C(=O)N[C@@H](CCCCN)C(=O)N[C@@H](CCC(N)=O)C(=O)N[C@@H](CCCNC(=N)N)C(=O)N[C@@H](CCC(=O)O)C(=O)N[C@@H](CCC(N)=O)C(=O)N[C@@H](C)C(=O)N[C@@H](CCC(=O)O)C(=O)N[C@@H](CCCCN)C(=O)N[C@@H](CC(N)=O)C(=O)N[C@@H](CCCCN)C(=O)N[C@@H](CCC(N)=O)C(=O)N[C@H](C(=O)N[C@@H](CC(C)C)C(=O)N[C@@H](CCC(=O)O)C(=O)N[C@@H](CCC(N)=O)C(=O)N[C@H](C(N)=O)C(C)C)[C@@H](C)CC)[C@@H](C)CC)[C@@H](C)CC)C(C)C)C(C)C
B5: peptide of SEQ ID NO: 196 (peptide)
peptide: IVLSLD[dV]PIGLK([γGlu-C16 diacid])QILLKQERQKK[Aib]REQAEKNKRILERV-NH2
modifications: N-terminus assumed
SMILES: CC[C@H](C)[C@H](N)C(=O)N[C@H](C(=O)N[C@@H](CC(C)C)C(=O)N[C@@H](CO)C(=O)N[C@@H](CC(C)C)C(=O)N[C@@H](CC(=O)O)C(=O)N[C@@H](C(=O)N1CCC[C@H]1C(=O)N[C@H](C(=O)NCC(=O)N[C@@H](CC(C)C)C(=O)N[C@@H](CCCCNC(=O)CC[C@H](NC(=O)CCCCCCCCCCCCCCC(=O)O)C(=O)O)C(=O)N[C@@H](CCC(N)=O)C(=O)N[C@H](C(=O)N[C@@H](CC(C)C)C(=O)N[C@@H](CC(C)C)C(=O)N[C@@H](CCCCN)C(=O)N[C@@H](CCC(N)=O)C(=O)N[C@@H](CCC(=O)O)C(=O)N[C@@H](CCCNC(=N)N)C(=O)N[C@@H](CCC(N)=O)C(=O)N[C@@H](CCCCN)C(=O)N[C@@H](CCCCN)C(=O)NC(C)(C)C(=O)N[C@@H](CCCNC(=N)N)C(=O)N[C@@H](CCC(=O)O)C(=O)N[C@@H](CCC(N)=O)C(=O)N[C@@H](C)C(=O)N[C@@H](CCC(=O)O)C(=O)N[C@@H](CCCCN)C(=O)N[C@@H](CC(N)=O)C(=O)N[C@@H](CCCCN)C(=O)N[C@@H](CCCNC(=N)N)C(=O)N[C@H](C(=O)N[C@@H](CC(C)C)C(=O)N[C@@H](CCC(=O)O)C(=O)N[C@@H](CCCNC(=N)N)C(=O)N[C@H](C(N)=O)C(C)C)[C@@H](C)CC)[C@@H](C)CC)[C@@H](C)CC)C(C)C)C(C)C
B6: peptide of SEQ ID NO: 193 (peptide)
peptide: IVLSLD[dV]PIGLK([γGlu-C16 diacid])QILLKQERQKK[Aib]REQAETNKRILERV-NH2
modifications: N-terminus assumed
SMILES: CC[C@H](C)[C@H](N)C(=O)N[C@H](C(=O)N[C@@H](CC(C)C)C(=O)N[C@@H](CO)C(=O)N[C@@H](CC(C)C)C(=O)N[C@@H](CC(=O)O)C(=O)N[C@@H](C(=O)N1CCC[C@H]1C(=O)N[C@H](C(=O)NCC(=O)N[C@@H](CC(C)C)C(=O)N[C@@H](CCCCNC(=O)CC[C@H](NC(=O)CCCCCCCCCCCCCCC(=O)O)C(=O)O)C(=O)N[C@@H](CCC(N)=O)C(=O)N[C@H](C(=O)N[C@@H](CC(C)C)C(=O)N[C@@H](CC(C)C)C(=O)N[C@@H](CCCCN)C(=O)N[C@@H](CCC(N)=O)C(=O)N[C@@H](CCC(=O)O)C(=O)N[C@@H](CCCNC(=N)N)C(=O)N[C@@H](CCC(N)=O)C(=O)N[C@@H](CCCCN)C(=O)N[C@@H](CCCCN)C(=O)NC(C)(C)C(=O)N[C@@H](CCCNC(=N)N)C(=O)N[C@@H](CCC(=O)O)C(=O)N[C@@H](CCC(N)=O)C(=O)N[C@@H](C)C(=O)N[C@@H](CCC(=O)O)C(=O)N[C@H](C(=O)N[C@@H](CC(N)=O)C(=O)N[C@@H](CCCCN)C(=O)N[C@@H](CCCNC(=N)N)C(=O)N[C@H](C(=O)N[C@@H](CC(C)C)C(=O)N[C@@H](CCC(=O)O)C(=O)N[C@@H](CCCNC(=N)N)C(=O)N[C@H](C(N)=O)C(C)C)[C@@H](C)CC)[C@@H](C)O)[C@@H](C)CC)[C@@H](C)CC)C(C)C)C(C)C

Target: T1, CRF1R receptor (anti-target)
Assay: cell-based or functional assay

CRF1/CRF2 ratio (of EC50) | CRF1 EC50 (cAMP, HTRF) [nM] | Binder
134 | 69.1 | B1

Target: human corticotropin-releasing factor 2α (CRF2α receptor) (human), Q13324
Assay: cell-based or functional assay

Sequence of human corticotropin-releasing factor 2α (CRF2α receptor) (human), Q13324 (Q13324 20-411): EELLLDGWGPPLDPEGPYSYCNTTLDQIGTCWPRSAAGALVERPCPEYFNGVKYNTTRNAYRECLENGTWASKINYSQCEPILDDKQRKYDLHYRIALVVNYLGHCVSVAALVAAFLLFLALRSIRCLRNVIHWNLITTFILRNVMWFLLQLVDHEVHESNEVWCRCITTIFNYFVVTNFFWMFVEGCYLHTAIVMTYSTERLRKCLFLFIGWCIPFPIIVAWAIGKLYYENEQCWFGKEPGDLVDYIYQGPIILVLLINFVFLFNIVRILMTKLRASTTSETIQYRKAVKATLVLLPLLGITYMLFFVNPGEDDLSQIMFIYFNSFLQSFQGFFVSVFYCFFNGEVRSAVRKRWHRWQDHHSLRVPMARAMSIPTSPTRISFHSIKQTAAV

EC50 [nM], 0% HSA (cAMP, HTRF) [nM] | Binder
2.27 | B2
0.34 | B3
0.46 | B1
2.47 | B4
1.08 | B5
0.82 | B6

Target: human corticotropin-releasing factor 2α receptor (CRF2α receptor) (human), Q13324
Assay: cell-based or functional assay

Sequence of human corticotropin-releasing factor 2α receptor (CRF2α receptor) (human), Q13324 (Q13324 20-411): as above

CRF2 EC50 (cAMP, HTRF) [nM] | Binder
2.27 | B2
0.34 | B3
0.46 | B1
2.47 | B4
1.08 | B5
0.82 | B6
